The values below come from patent publication EP3466970A1 (Orum Therapeutics Inc., dated 2019).

The target in this experiment is T1, mCherry (red fluorescence) H-RAS G12V expressed in NIH3T3 cells (UniProt P01112 1-186, limits assumed).
T1 construct: Intracellular target at the inner cell membrane; also called intracellular H-RAS G12V mutants
Nature of the experiment: confocal microscopy, colocalisation in NIH3T3 cells expressing mCherry H-RAS G12V.

B1: cytosol-penetrating antibody (cytotransmab) TMab4 (antibody, V domains shown)
VH: EVQLVESGGGLVQPGGSLRLSCAASGYTFTSYVMHWVRQAPGKGLEWVSAINPYNDGNYYADSVKGRFTISRDNSRKTLYLQMNSLRAEDTAVYYCARGAYKRGYAMDYWGQGTTVTVSS
VL: DLVMTQSPSSLSASVGDRVTITCKSSQSLFNSRTRKNYLAWYQQKPGKAPKLLIYWASTRESGVPSRFSGSGSGTDFTLTISSLQPEDFATYYCQQYYYHMYTFGQGTKVEIKR
notes: Intact IgG-format monoclonal antibody; Used as negative control in the RAS assays; also called CT
Consider B1, for which the binding result is given as “no binding (tested: 2 µM)”.
